The values below come from article PMC12776482, “Structural and Functional Analysis of GGPPS Inhibition as a Therapeutic Mechanism for Acute Myeloid Leukemia (AML)” (Research Square, 2025).

The data set deals with the molecule itself. Description: mass photometry; purified wild-type recombinant human GGPPS in solution; conditions not shown (Fig. S2).

B1: wild-type recombinant human geranylgeranyl pyrophosphate synthase (GGPPS) (enzyme)
chain: MEKTQETVQRILLEPYKYLLQLPGKQVRTKLSQAFNHWLKVPEDKLQIIIEVTEMLHNASLLIDDIEDNSKLRRGFPVAHSIYGIPSVINSANYVYFLGLEKVLTLDHPDAVKLFTRQLLELHQGQGLDIYWRDNYTCPTEEEYKAMVLQKTGGLFGLAVGLMQLFSDYKEDLKPLLNTLGLFFQIRDDYANLHSKEYSENKSFCEDLTEGKFSFPTIHAIWSRPESTQVQNILRQRTENIDIKKYCVHYLEDVGSFEYTRNTLKELEAKAYKQIDARGGNPELVALVKHLSKMFKEENE
notes: human geranylgeranyl pyrophosphate synthase (GGPPS, GGPS1), wild type; His6 tag removed with TEV protease; also called GGPP synthase; hGGPPS; source: E. coli (BL21 DE3), purified (Ni-NTA, TEV cleavage, second Ni-NTA, Superdex 200); not shown: His6, N-terminal, cleaved
In the case of B1, the “stoichiometry N” value stood at 6.
